Assay results from patent publication US20220048967A1 (published 2022).
Substitutions are numbered along the chain they refer to. Numbered stars: 1 amine (or outer) side, 2 acyl side, 3 side chain; on linkers, the order of the positions; unused ones are H or OH. Square brackets hold non-standard residues; d marks the D form. Side chains are listed from the residue outwards. Ends that are not written are not given here. * marks the point of attachment. C20 diacid = O=C(O)CCCCCCCCCCCCCCCCCCC(=O)*; γGlu = O=C(O)[C@H](CCC(=O)[*:2])N[*:1]; αMeL = CC(C)C[C@](C)(N)C(=O)O; Dab = NCC[C@H](N)C(=O)O; Dap = NC[C@H](N)C(=O)O; AEEA = NCCOCCOCC(=O)O; Aib = CC(C)(N)C(=O)O

B1: Example 343 (peptide)
peptide: YXEGTFTSDYSIXLDEKAQXAFIXYLIAGGPSSGAPPPS
modifications: not fully specified; Aib2, αMeL13, K17 conjugated to (2-[2-(2-Amino-ethoxy)-ethoxy]-acetyl)2-(γ-Glu)-CO-(CH2)18-CO2H, Aib20, D-Glu24, C-terminal amide (NH2)
B2: Example 353 (peptide)
peptide: B1 peptide with Y1X, E16K, A21E, A28E
modifications: D-Tyr1, Aib2, αMeL13, K17 conjugated to (2-[2-(2-Amino-ethoxy)-ethoxy]-acetyl)2-(γ-Glu)-CO-(CH2)18-CO2H, Aib20, D-Glu24, C-terminal amide (NH2)
B3: Example 352 (peptide)
peptide: B1 peptide with Y1X, E16K
modifications: D-Tyr1, Aib2, αMeL13, K17 conjugated to (2-[2-(2-Amino-ethoxy)-ethoxy]-acetyl)2-(γ-Glu)-CO-(CH2)18-CO2H, Aib20, D-Glu24, C-terminal amide (NH2)
B4: Example 349 (peptide)
peptide: B1 peptide with Y1X, E16X, A21E, X24E
modifications: D-Tyr1, Aib2, αMeL13, Orn16, K17 conjugated to (2-[2-(2-Amino-ethoxy)-ethoxy]-acetyl)2-(γ-Glu)-CO-(CH2)18-CO2H, Aib20, C-terminal amide (NH2)
B5: Example 363 (peptide)
peptide: B1 peptide with Y1X, E16X
modifications: D-Tyr1, Aib2, αMeL13, Orn16, K17 conjugated to (2-[2-(2-Amino-ethoxy)-ethoxy]-acetyl)2-(γ-Glu)-CO-(CH2)16-CO2H, Aib20, D-Glu24, C-terminal amide (NH2)
B6: Example 358 (peptide)
peptide: B1 peptide with Y1X, E16X, I23V, X24E
modifications: D-Tyr1, Aib2, αMeL13, Orn16, K17 conjugated to (2-[2-(2-Amino-ethoxy)-ethoxy]-acetyl)2-(γ-Glu)-CO-(CH2)18-CO2H, Aib20, C-terminal amide (NH2)
B7: Example 346 (peptide)
peptide: B1 peptide with Y1X, E16X, X24E
modifications: D-Tyr1, Aib2, αMeL13, Orn16, K17 conjugated to (2-[2-(2-Amino-ethoxy)-ethoxy]-acetyl)2-(γ-Glu)-CO-(CH2)18-CO2H, Aib20, C-terminal amide (NH2)
B8: Example 344 (peptide)
peptide: B1 peptide with A21D, X24E
modifications: not fully specified; Aib2, αMeL13, K17 conjugated to (2-[2-(2-Amino-ethoxy)-ethoxy]-acetyl)2-(γ-Glu)-CO-(CH2)18-CO2H, Aib20, C-terminal amide (NH2)
B9: Example 291 (peptide)
peptide: B1 peptide with Y1X, E16X
modifications: D-Tyr1, Aib2, αMeL13, Orn16, K17 conjugated to (2-[2-(2-Amino-ethoxy)-ethoxy]-acetyl)2-(γ-Glu)-CO-(CH2)18-CO2H, Aib20, D-Glu24, C-terminal amide (NH2)
B10: Example 355 (peptide)
peptide: B1 peptide with Y1X, E16X, A21E, A28E
modifications: D-Tyr1, Aib2, αMeL13, Orn16, K17 conjugated to (2-[2-(2-Amino-ethoxy)-ethoxy]-acetyl)2-(γ-Glu)-CO-(CH2)18-CO2H, Aib20, D-Glu24, C-terminal amide (NH2)
B11: Example 354 (peptide)
peptide: B1 peptide with Y1X, E16X, A21E
modifications: D-Tyr1, Aib2, αMeL13, Orn16, K17 conjugated to (2-[2-(2-Amino-ethoxy)-ethoxy]-acetyl)2-(γ-Glu)-CO-(CH2)18-CO2H, Aib20, D-Glu24, C-terminal amide (NH2)
B12: Example 348 (peptide)
peptide: [dY][Aib]EGTFTSDYSI[αMeL]LD[Dap]K([AEEA-AEEA-γGlu-C20 diacid])AQ[Aib]AFIEYLIAGGPSSGAPPPS-NH2
modifications: N-terminus assumed
SMILES: CC[C@H](C)[C@H](NC(=O)[C@H](CC(C)C)NC(=O)[C@H](Cc1ccc(O)cc1)NC(=O)[C@H](CCC(=O)O)NC(=O)[C@@H](NC(=O)[C@H](Cc1ccccc1)NC(=O)[C@H](C)NC(=O)C(C)(C)NC(=O)[C@H](CCC(N)=O)NC(=O)[C@H](C)NC(=O)[C@H](CCCCNC(=O)COCCOCCNC(=O)COCCOCCNC(=O)CC[C@H](NC(=O)CCCCCCCCCCCCCCCCCCC(=O)O)C(=O)O)NC(=O)[C@H](CN)NC(=O)[C@H](CC(=O)O)NC(=O)[C@H](CC(C)C)NC(=O)[C@](C)(CC(C)C)NC(=O)[C@@H](NC(=O)[C@H](CO)NC(=O)[C@H](Cc1ccc(O)cc1)NC(=O)[C@H](CC(=O)O)NC(=O)[C@H](CO)NC(=O)[C@@H](NC(=O)[C@H](Cc1ccccc1)NC(=O)[C@@H](NC(=O)CNC(=O)[C@H](CCC(=O)O)NC(=O)C(C)(C)NC(=O)[C@H](N)Cc1ccc(O)cc1)[C@@H](C)O)[C@@H](C)O)[C@@H](C)CC)[C@@H](C)CC)C(=O)N[C@@H](C)C(=O)NCC(=O)NCC(=O)N1CCC[C@H]1C(=O)N[C@@H](CO)C(=O)N[C@@H](CO)C(=O)NCC(=O)N[C@@H](C)C(=O)N1CCC[C@H]1C(=O)N1CCC[C@H]1C(=O)N1CCC[C@H]1C(=O)N[C@@H](CO)C(N)=O
B13: Example 345 (peptide)
peptide: XXEGTXTSDYSIXLDKKAQXEFIEYLIAGGPSSGAPPPS
modifications: D-Tyr1, Aib2, αMeF6, αMeL13, K17 conjugated to (2-[2-(2-Amino-ethoxy)-ethoxy]-acetyl)2-(γ-Glu)-CO-(CH2)18-CO2H, Aib20, C-terminal amide (NH2)
B14: Example 293 (peptide)
peptide: B13 peptide with X6F, K16X, Y25X
modifications: D-Tyr1, Aib2, αMeL13, Orn16, K17 conjugated to (2-[2-(2-Amino-ethoxy)-ethoxy]-acetyl)2-(γ-Glu)-CO-(CH2)18-CO2H, Aib20, αMeY25, C-terminal amide (NH2)
B15: Example 292 (peptide)
peptide: B13 peptide with X6F, Y25X
modifications: D-Tyr1, Aib2, αMeL13, K17 conjugated to (2-[2-(2-Amino-ethoxy)-ethoxy]-acetyl)2-(γ-Glu)-CO-(CH2)18-CO2H, Aib20, αMeY25, C-terminal amide (NH2)
B16: Example 359 (peptide)
peptide: B13 peptide with X6F, K16X, I23V
modifications: D-Tyr1, Aib2, αMeL13, Orn16, K17 conjugated to (2-[2-(2-Amino-ethoxy)-ethoxy]-acetyl)2-(γ-Glu)-CO-(CH2)18-CO2H, Aib20, C-terminal amide (NH2)
B17: Example 347 (peptide)
peptide: [dY][Aib]EGTFTSDYSI[αMeL]LD[Dab]K([AEEA-AEEA-γGlu-C20 diacid])AQ[Aib]AFIEYLIAGGPSSGAPPPS-NH2
modifications: N-terminus assumed
SMILES: CC[C@H](C)[C@H](NC(=O)[C@H](CC(C)C)NC(=O)[C@H](Cc1ccc(O)cc1)NC(=O)[C@H](CCC(=O)O)NC(=O)[C@@H](NC(=O)[C@H](Cc1ccccc1)NC(=O)[C@H](C)NC(=O)C(C)(C)NC(=O)[C@H](CCC(N)=O)NC(=O)[C@H](C)NC(=O)[C@H](CCCCNC(=O)COCCOCCNC(=O)COCCOCCNC(=O)CC[C@H](NC(=O)CCCCCCCCCCCCCCCCCCC(=O)O)C(=O)O)NC(=O)[C@H](CCN)NC(=O)[C@H](CC(=O)O)NC(=O)[C@H](CC(C)C)NC(=O)[C@](C)(CC(C)C)NC(=O)[C@@H](NC(=O)[C@H](CO)NC(=O)[C@H](Cc1ccc(O)cc1)NC(=O)[C@H](CC(=O)O)NC(=O)[C@H](CO)NC(=O)[C@@H](NC(=O)[C@H](Cc1ccccc1)NC(=O)[C@@H](NC(=O)CNC(=O)[C@H](CCC(=O)O)NC(=O)C(C)(C)NC(=O)[C@H](N)Cc1ccc(O)cc1)[C@@H](C)O)[C@@H](C)O)[C@@H](C)CC)[C@@H](C)CC)C(=O)N[C@@H](C)C(=O)NCC(=O)NCC(=O)N1CCC[C@H]1C(=O)N[C@@H](CO)C(=O)N[C@@H](CO)C(=O)NCC(=O)N[C@@H](C)C(=O)N1CCC[C@H]1C(=O)N1CCC[C@H]1C(=O)N1CCC[C@H]1C(=O)N[C@@H](CO)C(N)=O
B18: Example 351 (peptide)
peptide: [dY][Aib]EGTFTSDYSI[αMeL]LD[Dap]K([AEEA-AEEA-γGlu-C20 diacid])AQ[Aib]EFIEYLIAGGPSSGAPPPS-NH2
modifications: N-terminus assumed
SMILES: CC[C@H](C)[C@H](NC(=O)[C@H](CC(C)C)NC(=O)[C@H](Cc1ccc(O)cc1)NC(=O)[C@H](CCC(=O)O)NC(=O)[C@@H](NC(=O)[C@H](Cc1ccccc1)NC(=O)[C@H](CCC(=O)O)NC(=O)C(C)(C)NC(=O)[C@H](CCC(N)=O)NC(=O)[C@H](C)NC(=O)[C@H](CCCCNC(=O)COCCOCCNC(=O)COCCOCCNC(=O)CC[C@H](NC(=O)CCCCCCCCCCCCCCCCCCC(=O)O)C(=O)O)NC(=O)[C@H](CN)NC(=O)[C@H](CC(=O)O)NC(=O)[C@H](CC(C)C)NC(=O)[C@](C)(CC(C)C)NC(=O)[C@@H](NC(=O)[C@H](CO)NC(=O)[C@H](Cc1ccc(O)cc1)NC(=O)[C@H](CC(=O)O)NC(=O)[C@H](CO)NC(=O)[C@@H](NC(=O)[C@H](Cc1ccccc1)NC(=O)[C@@H](NC(=O)CNC(=O)[C@H](CCC(=O)O)NC(=O)C(C)(C)NC(=O)[C@H](N)Cc1ccc(O)cc1)[C@@H](C)O)[C@@H](C)O)[C@@H](C)CC)[C@@H](C)CC)C(=O)N[C@@H](C)C(=O)NCC(=O)NCC(=O)N1CCC[C@H]1C(=O)N[C@@H](CO)C(=O)N[C@@H](CO)C(=O)NCC(=O)N[C@@H](C)C(=O)N1CCC[C@H]1C(=O)N1CCC[C@H]1C(=O)N1CCC[C@H]1C(=O)N[C@@H](CO)C(N)=O
B19: Example 350 (peptide)
peptide: [dY][Aib]EGTFTSDYSI[αMeL]LD[Dab]K([AEEA-AEEA-γGlu-C20 diacid])AQ[Aib]EFIEYLIAGGPSSGAPPPS-NH2
modifications: N-terminus assumed
SMILES: CC[C@H](C)[C@H](NC(=O)[C@H](CC(C)C)NC(=O)[C@H](Cc1ccc(O)cc1)NC(=O)[C@H](CCC(=O)O)NC(=O)[C@@H](NC(=O)[C@H](Cc1ccccc1)NC(=O)[C@H](CCC(=O)O)NC(=O)C(C)(C)NC(=O)[C@H](CCC(N)=O)NC(=O)[C@H](C)NC(=O)[C@H](CCCCNC(=O)COCCOCCNC(=O)COCCOCCNC(=O)CC[C@H](NC(=O)CCCCCCCCCCCCCCCCCCC(=O)O)C(=O)O)NC(=O)[C@H](CCN)NC(=O)[C@H](CC(=O)O)NC(=O)[C@H](CC(C)C)NC(=O)[C@](C)(CC(C)C)NC(=O)[C@@H](NC(=O)[C@H](CO)NC(=O)[C@H](Cc1ccc(O)cc1)NC(=O)[C@H](CC(=O)O)NC(=O)[C@H](CO)NC(=O)[C@@H](NC(=O)[C@H](Cc1ccccc1)NC(=O)[C@@H](NC(=O)CNC(=O)[C@H](CCC(=O)O)NC(=O)C(C)(C)NC(=O)[C@H](N)Cc1ccc(O)cc1)[C@@H](C)O)[C@@H](C)O)[C@@H](C)CC)[C@@H](C)CC)C(=O)N[C@@H](C)C(=O)NCC(=O)NCC(=O)N1CCC[C@H]1C(=O)N[C@@H](CO)C(=O)N[C@@H](CO)C(=O)NCC(=O)N[C@@H](C)C(=O)N1CCC[C@H]1C(=O)N1CCC[C@H]1C(=O)N1CCC[C@H]1C(=O)N[C@@H](CO)C(N)=O

What follows are binders tested against human GLP-1 receptor (human, UniProt P43220 24-463) (assay: cell-based or functional assay).

Binder	hGLP1R GTPgS % Top [%]	hGLP1R GTPgS Rel EC50 [nM]
B1	74.9	0.522
B2	63.1	1.96
B3	63.5	0.552
B4	64.5	0.464
B5	69.6	0.943
B6	72.3	0.414
B7	56.6	0.737
B8	85.8	0.423
B9	65	0.466
B10	50.6	1.76
B11	53.3	0.967
B12	47.7	0.66
B13	62	0.684
B14	70.6	0.368
B15	71.5	0.429
B16	69.7	0.496
B17	46.9	0.759
B18	66.5	0.563
B19	64.1	0.589

What follows are binders tested against Pro-Link-tagged Human GLP-1R (human, UniProt P43220 24-463) (assay: cell-based or functional assay).

Binder	hGLP1R B-Arrestin2 % Top [%]	hGLP1R B-Arrestin2 Rel EC50 [nM]
B1	41.4	45.5
B2	23	559
B3	17.4	4.21
B4	18.4	15.1
B5	22.1	135
B6	21.4	9.38
B7	19.3	3.25
B8	46	34.3
B9	–	> 10000
B10	18.3	363
B11	22.7	255
B12	19.8	3.46
B13	74.7	3.08
B14	29.5	7.19
B15	29	7.74
B16	28.4	84.1
B17	24.6	5.42
B18	23.5	19.6
B19	21.8	10.8
